Results published in the DeepSol protein solubility set.

Experiment: soluble on expression in E. coli; label from the status in PepcDB or PDB records

| Sequence | soluble on expression in E. coli |
| --- | --- |
| MGSDKIHHHHHHMRVPPHNLEAEVAVLGSILIDPSVINDVLEILSHEDFYLKKHQHIFRAMEELYDEGKPVDVVSVCDKLQSMGKLEEVGGDLEVAQLAEAVPSSAHALHYAEIVKEKSILRKLIEISRKISESAYMEEDVEILLDNAEKMIFEISEMKTTKSYDHLRGIMHRVFENLENFRERANLIEPGVLITGLPTGFKSLDKQTTGFHSSDLVIIAARPSMGKTSFALSIARNMAVNFEIPVGIFSLEMSKEQLAQRLLSMESGVDLYSIRTGYLDQEKWERLTIAASKLYKAPIVVDDESLLDPRSLRAKARRMKKEYDVKAIFVDYLQLMHLKGRKESRQQEISEISRSLKLLARELDIVVIALSQLSRAVEQREDKRPRLSDLRESGAIEQDADTVIFIYREEYYRSKKSKEESKLHEPHEAEIIIGKQRNGPVGTITLIFDPRTVTFHEVDVVHS | not soluble |
| MGSDKIHHHHHHMRYPEGMALQNKFPILWDCFLQRINDALKATTQEELGRRLGVGKSAITKWRHGSTRGADLQDFLRYCDVLGIDFCGIINGTPTPTYSPSPFEIALTGVLDSFLSVHNLTHEKAASSLWPETANGAAKLGSILTAKEPLTPEVLMQLCLLMEEDPGKLLRLARERVQPEGEQISGNAKSA | not soluble |
| MGSDKIHHHHHHMRYRPVIGLEIHVQLSTKTKAFCSCPADVFELPPNTAICPVCTGQPGALPVPNEEMIRFAVKTALALNCKIHKYSRFDRKNYFYPDLPKGYQISQYFYPIATEGFLEIDGDEGRKKVRIRRLHLEEDAGKLVHEGDSITRASYSLVDMNRCGVPLIEIVTEPDISSPREARVFMEKLRSIVRYLGVSTGDMEKGALRCDANISVVDTETGRQSNRVEVKNMNSFRFVERALEYEFERIVKAMERGEDVERETRGWDMATKITVSMRGKEEESDYRYFPEPDIPPVVLSDEYLEEVKKELPELPDEKAERFMREYGLPEYDAKVLTSSKELAEFFEECVKVVNRPKDLSNWIMTEVLRELNERNIEITESKLTPQHFADLFKLMDEGKISIKIAKEIFPEVFETGKMPSQIVEEKGLTQINDEKLIEELVKKAMEQNPKAVQDYKSGKKKAAGFFVGYVMRETKGKANPELTNRIIQKLLEGE | not soluble |
| MGSDKIHHHHHHMRYVKLHSEYFPEFFNRLKEVGRVYGPVRHNSTYRFEEVNSIDELSLDYTRTILPPKKFFIRPRDAMFKIQKNEVTEVDGDGKFVLFGVHSCDIHGIKILDKVYLSNPPDPYYERRRKNAFIVGISCMPDEYCFCKSLGTDFAMDGFDIFLHELPDGWLVRVGSVKGHEFVWENQDIFDDVTEEDLRNFKEFEEKRAKAFKKSLNKEGLADILDLAFTSKVWKKYAEKCLGCGNCTIVCPTCRCYEVCDTWVRAYEALRMRRYDSCFMPTHGLVAGGHNFRPTRLDRFRHRYYCKNYFDPEAGFNCVGCGRCDEFCPARIEHVKVLDEVREGLI | not soluble |
| MGSDKIHHHHHHMSATEKRRYEVLRAIVADYIASQEPVGSKSLLERHKLNVSSATIRNDMSVLESDGFIVQEHASSGRVPTERGYRLFVDSIHDIKPLSLAERRAILGFLEGGVDLEDVLRRSVQLLSQLTHQAAVVQLPTLKTARVKHCEVVPLSPMRLLLVLITDTGRVDQRNVELEEPLAAEEVNVLRDLLNGALGEKTLTAASDALEELAQQAPTDIRDAMRRCCDVLVNTLVDQPSDRLILAGTSNLTRLSRETSASLPMVLEALEEQVVMLKLLSNVTDLDQVRVHIGGENEDIELRSATVITTGYGSQGSALGGLGVVGPTYMDYSGTISKVSAVAKYVGRVLAGE | not soluble |
| MGSDKIHHHHHHMSCIDCAVKNCNKMDKTYPDFCLTTHMDEEVLNEAMECYNEDENRKVTIAAAEVEYENYCKHTRVEEIMDFAKKINAKKIGIATCVGLLKESRILADILRRHGFEVYGVGCKAGTQKKTSVGIPECCEGVGVNMCNPILQAKLLNKAKTDLNVVVGLCVGHDSLFYKYSEALTTTAVTKDRVLGHNPVAALYTADSYYSKLKKSEEE | not soluble |
| MGSDKIHHHHHHMSDDLGSELQLLYLFVHLVNAGSFSQAAKELDMPIATVSRKLAKLEEKLDKQLFMRSTRKLRLTEEGLALFQRYQSVIAQFDELSGVGSDKPEGTLRIAAPISIISIIFIRALNEFGRLYPDIRLHISQSNELVDLIDKGIDVAIVGGAQPDSSWVSSTLGELDYCLFATPEYLAQAPKLTHPNDLEAHQLIKVWPLFNWHLKHPNGESFYFNGPTKLTLTDLHGAIESALDHGGILYGPELFVKQQIKEDRLKVLLPEWVGEQRRISILYHQRSQQPLKVRVFIEFMQSKAPELFSMA | not soluble |
| MGSDKIHHHHHHMSDFFIETTKADKVLPTNSRPKFFAFGIPSYTNLGDQAVSLAQRKYIENEFPEYQYIEILEDDNDEGIEAVKKIITSQDIVSFVGGGNMGSLYTNHEAARRKVFSTFVNNLTISFPQSIHFEDTPSGLKEQKLSQEAYGKNRHLFLIARDAQSYHRMQTTFDNQVLFTPDMVLYFKASHYDFKRSGALFVLRHDGEKVVGDSLIDSMKKMLDNNRPLKRTDTVLDTVKRITPINREKLFKEELELFAHQEIVITDRWHAMVFSVLTGTPCLLFGNSYGKGKHAYFDWLEHINWIAYTDEEDLDRIDQQIQRLIKTKEHAYDIRPDFKQLHDLIKLHSKK | not soluble |
| MGSDKIHHHHHHMSDIDFAKKMSFQRHFSRPKTAESEYAIVRQFESDRGRIINSAAIRRLQQKTQVFPLERNAAVRSRLTHSMEVQQVGRYIAKEILHRLQADERLASLGLADRETPFESLVEMACLMHDIGNPPFGHFGESAINQWFRKLLDSHYLDNESPERVDDCKVPTLRMQQDGLDDLRGQIRQDLSHFEGNAQAIRLVHTLLKLNLTYGQVACILKYTRPAYWHGELPADYNYLMKKPGYYLSEEAFVAKLREELDMGEFHRHPLSYIMEAADDVSYCIADLEDAVEKDILTIEELYDRLRENWGTGAEKDIFAKTIERAYKERERFQWRSHDDQFFMNLRVYTVGQMVPHAALRFIDNLPEIYTGSFNQALLEDDSPQNRLLGIFKHVALKHVFNHHEVEQLELQGDRVIRGLLDIYSPLLDMPYQDFSQLVSADTHKRYPIETRLYHKLSSKHCLAYREAVTELDGVAEPERIIREYYYRARLIQDYISGMTDLYAYDEYRMLMAAD | not soluble |
| MGSDKIHHHHHHMSDSKWKYNIIYNMEIEVLTGLHIGGSNEELKIGGTDSPVITTKYLINNVEPCDLPYIPGSSIKGKIRSLLENVDYKGKNGDDIVSKMFGYYPNAGEGIKRLTRLIIRDAFLDDGHIKSAEDARNVIEIKSENKIDPIESKATPRFIERVRRGTKFKGKIILSIYEGDNEEEMIKCLKTGISLLEDSYLGGNGTRGYGSVKITLGEPIKKGIDKYEENIKDNTSNGSEN | not soluble |
| MGSDKIHHHHHHMSEDQKRILEQQLWNIANTLRGKMNADEFRDYILGFIFYKYLSEKMEIFANDILKQDKISFREITPKLKQGKEYLEAIREEALEKLGYFLKPEELFSEVAKRGRGSNDEGENFDEAKTNFILEDLQKILINIQLSTMGTDSEEDFDNLFEDMDLNSTKLGKTPDARNAIIAKVLTHLDKIDFKLEDLESDVLGDSYEYLIGQFASGAGKKAGEFYTPQQVSKILAKIVTTEKHKLKSVYDPTCGSGSLLLRVAREVKDVAKFYGQEMNRTTYNLARMNMILHGVHYRKFDIKQEDTLEHPQHMGQQFEAIVANPPFSAQWSANPLHLSDDRFSQYGKLAPASKADYAFVQHMVHHLAENGIMALVLPHGVLFRGGAEQHIRKYLIEQKNYLDAVIGLPGNIFYGTSIPTCILVIKKCREMPDNILFIDASKEFEKVKTQNILREKHIDKIVDTYRSRKEIEKYSHCASLKEIAENDFNLNIPRYVDTFEEEEEIDIQAVMAEIKNLEAKRTDLDKQIDVYMKELGLVF | not soluble |
| MGSDKIHHHHHHMSEITTLQPSLLWKWFDQICAIPHPSHYEDTLANFIVNWAKEKHFFVERDEVGNVLIRKPATKGMENHTPVVLQAHLDMVPQANEGNPHDFTKDPIQPYIDGEWVKARGTTLGSDNGIGLASTLAVLESNDLAHPPLEVLLTMTEETGMDGAKGLRHNWLQSEILINTDTEEIGEIYIGCAGGINANFEIPVQYETNTFEHSAQITLKGLRGGHSGGDIHTGRANAIKVLARVLAKLSQNQPHFALSEIRGGSIRNAIPREAAAVLAFNGDVKTIESAVENLAVVLKEELAIAEPNFTLFVESAEKAPTVFTAQSTQTVINALNVLPNGVIRNSDVVKNVVESSLSVGVLKTEGNVVKSTILVRSLIESGKYYVTEMLSSLAILANAKVEFSAPYPGWQPVNDSTILDVTRKHYAEVLGEQPVVKVIHAGLECGLLKEHYPNIEMISVGPTIRNAHSPDEKVEIATVQTYWDLLTRVLADIPAK | not soluble |
| MGSDKIHHHHHHMSEQELSQLSGGMDDAAPCPWLKVEVHPAGDRQVVVAYGDIDVDTEAILQRALREALDHSVSGVNLDLGAVGFCDCAGLNVLLRMRRHALAHGKTLAVQATGPATGKLLTITGTLSLFDVTAGPGTRAKGRNPLPPEPHDPSRVDHIDGTGRGRDGTDLETDGTIDGTVVDLRIEVGQLRRAMQTRPVIDLARGVLMASFGLSAEDAWTVLVTVSQHTNTKLHQIAEDLVNTVQGAPLPEPLQRQLAEAVMPFSRVRNAGA | not soluble |
| MGSDKIHHHHHHMSEQYKQPNTPEPYWRQSTPLPDFKPLQNDLLVDVVIVGGGITGITTAYLLQKRGKKVVILEADRLFNGTTGHTTAKITAQHGLIYDEFIQHFGEDKAKQYYDAQMEAKTFIKNTVQDLSIDCDFQEHDAYIYTNANRYLAKLEREMRAYEKLQINGSLIDSMPLQVPIKKAIVMKGQAQFHPIAYLMKLVQDFIDRGGLIFEHTVATDVDKGEHRTVLTRDGHKVTCDYVVESSHFPFFDRGFYFSRMYADRSYVLGLKVKEPYPGGMYLSAEDPPRSIRHASYQGEDLWLISGETHKTGQGMDTDYHYEALESFSREMFNVTDISYRWSAQDLVTLDRMPYIGPATSNDPHILVATGFRKWGMTNGTIAAHVITDLIIGQVNAYQKLFAPQRFVADPSLRKFFSYNVDVAKHLIDGKTEKGSRTPESLQKDEGDVVNVNGKRAGGYRDTDGALHLVDTTCTHMGCEVSWNHGDRTWDCPCHGSRFSYDGEVVEGPAKKPLKKIDHT | not soluble |
| MGSDKIHHHHHHMSESYYGLLDEEKVFKDPVHRYIHVRDELIWALIGTKEFQRLRRVRQLGTTFLTFHGAEHTRFNHSLGVYEITRRIIEVFQGRPYWNEEERLLTLCAALLHDIGHGPFSHSFEKVFDTDHEEWTRRMIVGDTEIHNVLLKMGDDFPQKVADVIEKTYPNKLVTSIISSQIDADRMDYLQRDAYYTGVSYGHFDMERILRVMRPMEDQVVIKQSGMHAVEDYIMSRYQMYWQVYFHPVTRSAEVILSKVFKRVKDLYEQGYKFKQEPKHFYSLFEGNMSLDDYLRLDESITMYYFQIWQEEEDRILSDLCVRFINRQLFKYIEFNPNLQMNDWPRLQQLFAQAEIDPEYYLVVDSSSDLPYDFYRPGEEEERLPIHLIMPNGKLRELSRESDVVEAISGKKRTDHKLYFPMDCLTDQSDHKEIKQEILSLLFK | not soluble |
| MGSDKIHHHHHHMSEVYRQNPKVEAIILAGSVARKLEDEHSDIELHILWSMPPEDEDRKGPINYIGGTILSYHPYEEEEWSETYLTKEGIKLEISNFLTETVEKVIEDVVVQYDISYEKQCIVSSIHDGASLYGEEKVHELKDRVLAYPEDLAKRMISENLWLSNRWHNREALLKRKDWLMLYDVICEAQRNIFGVLFGLNKMYVHHPAFKWMPYNVERMIIKPENLYERMTNTLIGKPEYSIQELGVLIEELLQLVEHHAPELHIAEQQKRIQYAK | not soluble |
